Laboratory results as given in the supplement of paper PMC9112550, “Optimization of the antimicrobial peptide Bac7 by deep mutational scanning” (BMC Biology, 2022).

Test system: Escherichia coli TOP10
Experiment: shrunken log2 fold change of peptide-encoding DNA abundance (4.5 h post-induction vs induction); higher = less antimicrobial activity (less host growth inhibition)
Conditions: time post-induction: 4.5 h; library: site-saturation at positions 5, 18, 19, 20
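Further: peptides expressed intracellularly from a pBAD plasmid library in pooled LB shake-flask culture, induced with 0.3% L-arabinose, DNA abundance read by NGS, three biological replicates, DESeq2 with apeglm shrinkage.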

| Sequence | shrunken log2 fold change |
| --- | --- |
| RRIRMRPPRLPRPRPRPWGRPRP | 0.389 |
| RRIRRRPPRLPRPRPRPVKWPRP | 0.111 |
| RRIRTRPPRLPRPRPRPINAPRP | -0.175 |
| RRIRLRPPRLPRPRPRPAFAPRP | 0.368 |
| RRIRPRPPRLPRPRPRPIQQPRP | 0.000308 |
| RRIRSRPPRLPRPRPRPKGDPRP | -0.011 |
| RRIRDRPPRLPRPRPRPVANPRP | -0.0229 |
| RRIRARPPRLPRPRPRPQYHPRP | -0.398 |
| RRIRWRPPRLPRPRPRPLEVPRP | -0.0802 |
| RRIRFRPPRLPRPRPRPCYRPRP | -0.573 |
| RRIRARPPRLPRPRPRPSEWPRP | 0.0632 |
| RRIRSRPPRLPRPRPRPMEAPRP | -0.00776 |
| RRIRQRPPRLPRPRPRPHRRPRP | -0.185 |
| RRIRVRPPRLPRPRPRPSADPRP | -0.397 |
| RRIRQRPPRLPRPRPRPKVGPRP | 0.011 |
| RRIRHRPPRLPRPRPRPLIHPRP | -0.575 |
| RRIRSRPPRLPRPRPRPFNVPRP | -0.343 |
| RRIRCRPPRLPRPRPRPGHNPRP | -0.385 |
| RRIRSRPPRLPRPRPRPLHNPRP | -0.198 |
| RRIRCRPPRLPRPRPRPRVVPRP | 0.247 |
| RRIRARPPRLPRPRPRPFLLPRP | -0.223 |
| RRIRERPPRLPRPRPRPLFTPRP | -0.55 |
| RRIRPRPPRLPRPRPRPSHPPRP | -0.03 |
| RRIRRRPPRLPRPRPRPLRSPRP | 0.531 |
| RRIRRRPPRLPRPRPRPSIMPRP | -0.213 |

| Sequence | shrunken log2 fold change |
| --- | --- |
| RRIRTRPPRLPRPRPRPMTGPRP | 0.17 |
| RRIRQRPPRLPRPRPRPLCYPRP | -0.383 |
| RRIRWRPPRLPRPRPRPWWDPRP | 0.0125 |
| RRIRWRPPRLPRPRPRPRNSPRP | 0.0821 |
| RRIRNRPPRLPRPRPRPLKIPRP | -0.233 |
| RRIRDRPPRLPRPRPRPQAEPRP | -0.129 |
| RRIRARPPRLPRPRPRPLRTPRP | 0.541 |
| RRIRERPPRLPRPRPRPDMYPRP | -0.0361 |
| RRIRPRPPRLPRPRPRPGKLPRP | -0.4 |
| RRIRVRPPRLPRPRPRPSQCPRP | -0.187 |
| RRIRSRPPRLPRPRPRPKQGPRP | 0.245 |
| RRIRTRPPRLPRPRPRPLIVPRP | -0.438 |
| RRIRQRPPRLPRPRPRPPFPPRP | 0.243 |
| RRIRFRPPRLPRPRPRPHYDPRP | -0.397 |
| RRIRPRPPRLPRPRPRPPEPPRP | 0.787 |
| RRIRERPPRLPRPRPRPFRNPRP | -0.105 |
| RRIRIRPPRLPRPRPRPIDVPRP | 0.00859 |
| RRIRARPPRLPRPRPRPCGEPRP | -0.00932 |
| RRIRSRPPRLPRPRPRPESSPRP | 0.00287 |
| RRIRERPPRLPRPRPRPQTKPRP | 0.0765 |
| RRIRWRPPRLPRPRPRPYNVPRP | -0.758 |
| RRIRERPPRLPRPRPRPIAHPRP | -0.171 |
| RRIRERPPRLPRPRPRPEGCPRP | -0.318 |
| RRIRYRPPRLPRPRPRPYQGPRP | 0.00408 |
| RRIRPRPPRLPRPRPRPMWYPRP | -0.111 |

| Sequence | shrunken log2 fold change |
| --- | --- |
| RRIRMRPPRLPRPRPRPDYMPRP | -0.00256 |
| RRIRVRPPRLPRPRPRPWEIPRP | -0.00992 |
| RRIRGRPPRLPRPRPRPLECPRP | 0.447 |
| RRIRKRPPRLPRPRPRPNHSPRP | -0.321 |
| RRIRIRPPRLPRPRPRPSYVPRP | -1.22 |
| RRIRPRPPRLPRPRPRPCWIPRP | -0.456 |
| RRIRVRPPRLPRPRPRPMFIPRP | -0.384 |
| RRIRLRPPRLPRPRPRPPSWPRP | 0.0349 |
| RRIRHRPPRLPRPRPRPPDFPRP | 0.0633 |
| RRIRERPPRLPRPRPRPKAIPRP | -0.0487 |
| RRIRERPPRLPRPRPRPGWIPRP | -0.105 |
| RRIRQRPPRLPRPRPRPCIHPRP | -0.734 |
| RRIRRRPPRLPRPRPRPIYKPRP | -0.394 |
| RRIRARPPRLPRPRPRPPAQPRP | 1.02 |
| RRIRFRPPRLPRPRPRPNTNPRP | -0.622 |
| RRIRNRPPRLPRPRPRPRLAPRP | 0.404 |
| RRIRDRPPRLPRPRPRPPECPRP | 0.0841 |
| RRIRIRPPRLPRPRPRPSCWPRP | -0.322 |
| RRIRLRPPRLPRPRPRPSCVPRP | -0.0228 |
| RRIRERPPRLPRPRPRPGREPRP | 0.241 |
| RRIRFRPPRLPRPRPRPWMMPRP | -0.897 |
| RRIRWRPPRLPRPRPRPAFCPRP | 0.143 |
| RRIRNRPPRLPRPRPRPPTFPRP | 0.145 |
| RRIRFRPPRLPRPRPRPLVSPRP | -0.425 |
| RRIRGRPPRLPRPRPRPTLKPRP | 0.769 |

| Sequence | shrunken log2 fold change |
| --- | --- |
| RRIRRRPPRLPRPRPRPWHNPRP | -0.279 |
| RRIRIRPPRLPRPRPRPVSCPRP | -0.0157 |
| RRIRTRPPRLPRPRPRPKSVPRP | -0.0225 |
| RRIRRRPPRLPRPRPRPNVTPRP | 0.0871 |
| RRIRKRPPRLPRPRPRPNMGPRP | -0.215 |
| RRIRWRPPRLPRPRPRPFKKPRP | 0.149 |
| RRIRFRPPRLPRPRPRPLTKPRP | -0.2 |
| RRIRLRPPRLPRPRPRPTEQPRP | 0.0272 |
| RRIRQRPPRLPRPRPRPIWTPRP | 0.0198 |
| RRIRKRPPRLPRPRPRPCHHPRP | -0.411 |
| RRIRDRPPRLPRPRPRPMGYPRP | -0.115 |
| RRIRLRPPRLPRPRPRPEAGPRP | 0.375 |
| RRIRNRPPRLPRPRPRPISGPRP | -0.0579 |
| RRIRRRPPRLPRPRPRPCPFPRP | 0.0522 |
| RRIRYRPPRLPRPRPRPLLGPRP | -0.25 |
| RRIRPRPPRLPRPRPRPWEHPRP | -0.0525 |
| RRIRHRPPRLPRPRPRPELSPRP | 0.252 |
| RRIRWRPPRLPRPRPRPPMGPRP | 0.362 |
| RRIRQRPPRLPRPRPRPWRMPRP | -0.421 |
| RRIRVRPPRLPRPRPRPTKPPRP | 0.172 |
| RRIRNRPPRLPRPRPRPCKDPRP | -0.00844 |
| RRIRRRPPRLPRPRPRPNLSPRP | -0.0897 |
| RRIRDRPPRLPRPRPRPWHLPRP | -0.231 |
| RRIRVRPPRLPRPRPRPHIDPRP | -0.15 |
| RRIRYRPPRLPRPRPRPVMWPRP | 3.51 |

| Sequence | shrunken log2 fold change |
| --- | --- |
| RRIRYRPPRLPRPRPRPMLTPRP | -0.0378 |
| RRIRSRPPRLPRPRPRPAQAPRP | 0.15 |
| RRIRCRPPRLPRPRPRPLSDPRP | 0.0896 |
| RRIRQRPPRLPRPRPRPASVPRP | 0.253 |
| RRIRLRPPRLPRPRPRPLRAPRP | 0.709 |
| RRIRARPPRLPRPRPRPCLMPRP | -0.0504 |
| RRIRTRPPRLPRPRPRPMDSPRP | -0.0716 |
| RRIRSRPPRLPRPRPRPSQIPRP | -0.0773 |
| RRIRFRPPRLPRPRPRPYMAPRP | -0.688 |
| RRIRSRPPRLPRPRPRPMHIPRP | -0.283 |
| RRIRHRPPRLPRPRPRPWMPPRP | 0.0474 |
| RRIRSRPPRLPRPRPRPLDEPRP | 0.189 |
| RRIRYRPPRLPRPRPRPNWNPRP | -1.09 |
| RRIRSRPPRLPRPRPRPSTFPRP | -0.109 |
| RRIRTRPPRLPRPRPRPILRPRP | -0.0606 |
| RRIRTRPPRLPRPRPRPLGLPRP | 0.207 |
| RRIRYRPPRLPRPRPRPQFEPRP | -0.106 |
| RRIRARPPRLPRPRPRPYNGPRP | -0.0341 |
| RRIRARPPRLPRPRPRPPTSPRP | 0.525 |
| RRIRMRPPRLPRPRPRPCDYPRP | -0.163 |
| RRIRARPPRLPRPRPRPGHSPRP | -0.0933 |
| RRIRKRPPRLPRPRPRPPYAPRP | 0.424 |
| RRIRARPPRLPRPRPRPCAYPRP | -0.399 |
| RRIRMRPPRLPRPRPRPFYAPRP | -0.47 |
| RRIRQRPPRLPRPRPRPPKNPRP | 0.29 |

| Sequence | shrunken log2 fold change |
| --- | --- |
| RRIRYRPPRLPRPRPRPPDSPRP | -0.0664 |
| RRIRSRPPRLPRPRPRPRLIPRP | 0.288 |
| RRIRTRPPRLPRPRPRPAFPPRP | 0.0262 |
| RRIRTRPPRLPRPRPRPFEPPRP | -0.231 |
| RRIRNRPPRLPRPRPRPGWMPRP | 0.142 |
| RRIRNRPPRLPRPRPRPWDCPRP | -0.118 |
| RRIRLRPPRLPRPRPRPIRKPRP | -0.14 |
| RRIRMRPPRLPRPRPRPPHLPRP | 0.389 |
| RRIRRRPPRLPRPRPRPCADPRP | 0.0637 |
| RRIRERPPRLPRPRPRPFQWPRP | 0.0371 |
| RRIRCRPPRLPRPRPRPSCKPRP | -0.685 |
| RRIRKRPPRLPRPRPRPNGCPRP | -0.0163 |
| RRIRFRPPRLPRPRPRPETQPRP | -0.0941 |
| RRIRHRPPRLPRPRPRPVVCPRP | -0.184 |
| RRIRCRPPRLPRPRPRPATRPRP | 0.366 |
| RRIRQRPPRLPRPRPRPDTMPRP | 0.0515 |
| RRIRARPPRLPRPRPRPGFGPRP | 0.667 |
| RRIRGRPPRLPRPRPRPWMSPRP | 0.0647 |
| RRIRVRPPRLPRPRPRPLWHPRP | -0.0301 |
| RRIRLRPPRLPRPRPRPMAEPRP | 0.141 |
| RRIRMRPPRLPRPRPRPWHIPRP | -0.0015 |
| RRIRWRPPRLPRPRPRPGNMPRP | -0.11 |
| RRIRSRPPRLPRPRPRPGCVPRP | 0.247 |
| RRIRSRPPRLPRPRPRPLVWPRP | 0.272 |
| RRIRFRPPRLPRPRPRPAKWPRP | 0.0975 |
